Test results reported in patent US10369187B2, “Peptide regulators of JNK family kinases” (Vanderbilt University, priority 2017, dated 2019).

Columns and labels:
MKK4-JNK3 module [1] = target: MKK4-JNK3 module (Homo sapiens, UniProt P45985+P53779); assay: In vitro phosphorylation of JNK3α2 by MKK4 (reconstituted module); type: biochemical
Procedure: (§1) Next, it was tested whether T1A acts as a scaffold facilitating signaling. To this end, experiments used purified proteins, because they provide the most definitive data supporting a direct interaction. As purified ASK1 is not available, MKK4-JNK3 and MKK7-JNK3 modules were reconstituted in the absence and presence of varying concentrations of synthetic purified T1A peptide and measured JNK3 phosphorylation (FIG. 2A). […] This dependence, where signaling is increased at lower scaffold concentrations and decreased at higher, was also found for scaffolding of these modules by full-length arrestin-3^20. It is believed to be a characteristic of simple scaffolds, which act by bringing the enzyme and substrate together, as lower scaffold concentrations make the formation of complete scaffold-enzyme-substrate ternary complexes likely, whereas higher concentrations increase the probability of formation of incomplete enzyme-scaffold and substrate-scaffold binary complexes, suppressing the signaling^25,26. The optimal concentration of a scaffolding protein for signaling depends on its affinity for the proteins it scaffolds^20,25,26.
JNK3α2^20,23, and MKK4 and MKK7^17,20 were expressed in E. coli and purified as previously described^40. The effect of arrestin-3 and MBP-T1A on the phosphorylation of JNK3α2 by MKK7 or MKK4 was analyzed by an in vitro kinase assay, as described^19,20. Briefly, the assays were conducted in 10 μL containing the following final concentrations: 50 nM active MKK7 or MKK4, 1 μM JNK3α2, and indicated concentrations of arrestin-3 or T1A. The mixtures were incubated individually at 30° C. for 10 sec. The reactions were stopped by the addition of 15 μL of Laemmli SDS sample buffer (Sigma) and 2 μl of total reaction sample was subjected to SDS-PAGE (8%) and transferred polyvinylidene difluoride (PVDF) membranes (Millipore, Bedford, Mass.). Phosphorylated JNK3α2 was visualized by rabbit anti-phospho JNK antibody (Cell Signaling) and the level of JNK phosphorylation was quantified.

MKK4-JNK3 module [2] = assay: JNK3 phosphorylation by co-expressed MKK4 in cells; type: cell-based, African green monkey; conditions: YFP-T1A co-expressed with MKK4 in COS7 cells
Procedure: To test whether T1A can promote JNK3 phosphorylation by MKKs in cells, MKK4 or MKK7 was co-expressed with YFP-T1A in COS7 cells, using YFP and full-length arrestin-3 as negative and positive controls, respectively (FIG. 2C).
COS-7 African green monkey cells were maintained in DMEM supplemented with 10% heat-inactivated FBS (Invitrogen), penicillin, and streptomycin at 37° C. in a humidified incubator with 5% CO2. The cells were plated at 80-90% confluence and transfected using Lipofectamine 2000 (Invitrogen) according to the manufacturer's instructions. Cells were used 48 h post-transfection and serum-starved overnight before experiments.
COS-7 cells were incubated with phosphatase inhibitors (50 mM NaF and 10 mM Na3VO4) in serum-free medium for 15 min at 37° C.; washed with cold PBS; and lysed with SDS lysis buffer containing 1% SDS, 10 mM Tris (pH7.4), 10 mM NaF, 100 μM Na3VO4, 2 mM EDTA, 2 mM benzamidine and 1 mM PMSF. JNKs activity was assayed by Western blotting using an antibody specific for phosphorylated JNK to detect phosphorylated (active) JNKs^17,20,23. […] Protein was measured using the Bio-Rad Coomassie Blue assay. […] Protein bands were detected by enhanced chemiluminescence (ECL, Pierce), followed by exposure to x-ray film. To quantify phospho-JNKs, serial dilutions of anisomycin (1 μg/ml)-stimulated HEK-A cell lysates were used to ensure that all samples were in linear range. […]

MKK7-JNK3 module = MKK7-JNK3 module (Homo sapiens, UniProt O14733+P53779); assay: In vitro phosphorylation of JNK3α2 by MKK7 (reconstituted module); type: biochemical
Procedure: as §1, with “The optimal concentration of a scaffolding protein for signaling depends on its affinity for the proteins it scaffolds^20,25,26.” left out
JNK3α2^20,23, and MKK4 and MKK7^17,20 were expressed in E. coli and purified as previously described^40. The effect of arrestin-3 and MBP-T1A on the phosphorylation of JNK3α2 by MKK7 or MKK4 was analyzed by an in vitro kinase assay, as described^19,20. […] Phosphorylated JNK3α2 was visualized by rabbit anti-phospho JNK antibody (Cell Signaling) and the level of JNK phosphorylation was quantified.

MKK4-JNK3 module (Homo sapiens, UniProt P45985+P53779), sequence (P45985 whole entry): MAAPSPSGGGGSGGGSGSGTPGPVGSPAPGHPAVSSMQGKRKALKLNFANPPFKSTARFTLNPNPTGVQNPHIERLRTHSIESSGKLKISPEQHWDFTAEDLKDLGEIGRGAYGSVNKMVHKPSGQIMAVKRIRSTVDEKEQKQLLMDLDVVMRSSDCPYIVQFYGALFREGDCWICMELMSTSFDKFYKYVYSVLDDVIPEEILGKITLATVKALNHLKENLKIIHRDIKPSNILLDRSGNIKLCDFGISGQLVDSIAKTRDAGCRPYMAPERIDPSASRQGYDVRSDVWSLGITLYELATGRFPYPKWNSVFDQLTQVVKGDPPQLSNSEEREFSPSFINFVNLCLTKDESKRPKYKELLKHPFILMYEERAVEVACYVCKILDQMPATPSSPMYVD
MKK4-JNK3 module (Homo sapiens, UniProt P45985+P53779), sequence (P53779 whole entry): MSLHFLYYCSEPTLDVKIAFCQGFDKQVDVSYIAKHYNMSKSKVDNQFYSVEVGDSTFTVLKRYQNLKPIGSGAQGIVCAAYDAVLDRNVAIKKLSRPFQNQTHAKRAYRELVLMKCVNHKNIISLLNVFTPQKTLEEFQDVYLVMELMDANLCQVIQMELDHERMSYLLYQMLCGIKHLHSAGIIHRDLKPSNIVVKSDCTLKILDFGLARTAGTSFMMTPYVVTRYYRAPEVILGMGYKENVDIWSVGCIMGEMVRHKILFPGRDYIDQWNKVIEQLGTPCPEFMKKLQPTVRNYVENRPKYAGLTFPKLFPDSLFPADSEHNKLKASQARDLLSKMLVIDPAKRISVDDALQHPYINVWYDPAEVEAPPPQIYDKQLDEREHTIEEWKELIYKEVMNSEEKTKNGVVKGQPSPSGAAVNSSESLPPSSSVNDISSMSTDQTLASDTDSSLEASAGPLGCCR
MKK7-JNK3 module, sequence (O14733 whole entry): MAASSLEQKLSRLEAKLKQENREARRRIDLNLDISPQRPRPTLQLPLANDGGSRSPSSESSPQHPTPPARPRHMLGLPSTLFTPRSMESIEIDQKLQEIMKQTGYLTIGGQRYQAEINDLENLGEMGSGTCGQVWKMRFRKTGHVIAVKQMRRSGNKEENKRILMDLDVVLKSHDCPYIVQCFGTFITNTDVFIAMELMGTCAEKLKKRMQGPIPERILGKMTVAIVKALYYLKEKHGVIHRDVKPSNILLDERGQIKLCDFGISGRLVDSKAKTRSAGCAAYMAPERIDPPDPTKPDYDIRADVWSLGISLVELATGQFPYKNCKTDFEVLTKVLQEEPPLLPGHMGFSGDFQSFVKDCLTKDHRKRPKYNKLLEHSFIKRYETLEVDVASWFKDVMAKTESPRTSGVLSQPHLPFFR
MKK7-JNK3 module, sequence (P53779 whole entry): as the sequence (P53779 whole entry) above

MGEKPGTRVFKKSSPNCKLTVYLGK (bovine) [T1A, first 25 residues of arrestin-3]
optimal concentration for promoting JNK3 phosphorylation by MKK4 compared with MKK7-JNK3 module (MKK4-JNK3 module [1]): lower than for MKK7-JNK3 module | optimal concentration relative to full-length arrestin-3, MKK4-JNK3 module (MKK4-JNK3 module [1]): ~10 times lower | JNK3 phosphorylation level by MKK4 as a function of T1A concentration (MKK4-JNK3 module [1]; 50 nM MKK4, 1 μM JNK3α2, 10 sec, 30° C., synthetic purified peptide): bell-shaped curves | JNK3 phosphorylation by MKK4 in cells (MKK4-JNK3 module [2]): necessary and sufficient to promote the signaling | optimal concentration relative to full-length arrestin-3, MKK7-JNK3 module (MKK7-JNK3 module): ~10 times lower | JNK3 phosphorylation level by MKK7 as a function of T1A concentration (MKK7-JNK3 module; 50 nM MKK7, 1 μM JNK3α2, 10 sec, 30° C., synthetic purified peptide): bell-shaped curves
